This experiment deals with mAG (monomeric Azami-Green) with C-terminal E. coli BirA biotinylation motif and 6xHis tag. The experiment can be described thus: capture of lambda phage on MACS streptavidin beads prebound with biotinylated mAG1; background control.

For “phage uninduced (control) for α-mAG1 Fab::calmodulin expression”, the column output (phage (of 5.5×107 added)) was 20000.

(Values after patent publication US20160002317A1.)
